{"source": "paper PMC8362844", "about": "(Molecular pharmaceutics, 2020)", "target": "the molecule itself", "experiment": "native gel or EMSA", "data": [{"protein": "recombinant human alpha-N-acetylglucosamine-6-sulfatase with C-terminal c-myc tag (enzyme, UniProt P15586-1 37-552, looked up, N-glycosylated with high-mannose residues; mannose-6 phosphorylated at approximately 0.87% (W/W)) VFGVAAGTRRPNVVLLLTDDQDEVLGGMTPLKKTKALIGEMGMTFSSAYVPSALCCPSRASILTGKYPHNHHVVNNTLEGNCSSKSWQKIQEPNTFPAILRSMCGYQTFFAGKYLNEYGAPDAGGLEHVPLGWSYWYALEKNSKYYNYTLSINGKARKHGENYSVDYLTDVLANVSLDFLDYKSNFEPFFMMIATPAPHSPWTAAPQYQKAFQNVFAPRNKNFNIHGTNKHWLIRQAKTPMTNSSIQFLDNAFRKRWQTLLSVDDLVEKLVKRLEFTGELNNTYIFYTSDNGYHTGQFSLPIDKRQLYEFDIKVPLLVRGPGIKPNQTSKMLVANIDLGPTILDIAGYDLNKTQMDGMSLLPILRGASNLTWRSDVLVEYQGEGRNVTDPTCPSLSPGVSQCFPDCVCEDAYNNTYACVRTMSALWNLQYCEFDDQEVFVEVYNLTADPDQITNIAKTIDPELLGKMNYRLMMLQSCSGPTCRTPGVFDPGYRFDPRLMFSNRGSVRTRRFSKHLL", "values": [{"measurement": "stoichiometry N", "value": 2}]}]}
